The values that follow come from patent US20250092124A1 (YUNNAN BAIYAO GROUP, published 2025).

For assay [1], the target named is T1, fusion protein comprising the extracellular region of human GDF15 protein and human IgG1-FC (human, UniProt Q99988 197-308, limits assumed).
T1 construct: extracellular domain
T1 sequence (looked up): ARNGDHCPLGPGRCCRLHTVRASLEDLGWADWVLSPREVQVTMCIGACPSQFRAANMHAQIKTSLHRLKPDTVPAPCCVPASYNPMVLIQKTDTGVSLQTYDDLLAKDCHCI
Description: ELISA, human GDF15-hIgG1 Fc coated, HRP anti-mouse IgG. The protocol: (§1) A fusion protein comprising the extracellular region of human GDF15 protein (Genbank accession number NM_004864.3) and human IgG1-FC (Genbank accession number CAC20454.1) was diluted to 1 ng/ml with coating solution, followed by adding to ELISA plate at 50 μl/well and incubating at 4° C. overnight. The solution in the wells was discarded and the plate was washed 3 times with washing solution, each time for 3-5 minutes, and dried by tapping. 200 μl of blocking solution was added to each well and incubated at 4° C. overnight. The plate was washed 3 times with washing solution, and the coated plate may be stored at −20° C. or 4° C. for future use.
(§2) The antibodies to be tested (purified antibodies from hybridoma, see Table 1), positive control antibody AV380-mIgG1 (its sequence is from Aveo Oncology; see SEQ ID NO. 1 and SEQ ID NO. 2 for its heavy chain and light chain variable regions, respectively; see SEQ ID NO. 3 and SEQ ID NO. 4 for its heavy chain and light chain constant regions, respectively) and blank control (PBS) were added to the wells. […] The wells were incubated at 37° C. for 1 hour, washed, and dried via tapping. Then the enzyme-labeled secondary antibody, horseradish peroxidase-labeled goat anti-mouse IgG (SIGMA, catalog number A9044-2 ml) was added to each well, at a dilution of 1:10000, 100 μl/well. The wells were incubated at 37° C. for 2 hours, washed, and dried via tapping. 100 μl of freshly prepared developing solution TMB was added to each well and incubated at 37° C. for 30 minutes.
(§3) 2 mol/L H₂SO₄ was added to terminate the reaction, and the OD values were read on enzyme-linked immunosorbent reader. The results were shown in Table 1-1, Table 1-2 and FIGS. 1-1 and 1-2.
In general terms: ELISA stands for enzyme-linked immunosorbent assay.

Assay [2] addresses T2, fusion protein comprising the extracellular region of monkey GDF15 protein and human IgG1-FC (monkey (cyno); human, UniProt G7PWZ3 197-308, limits assumed).
T2 construct: extracellular domain; also called cynoGDF15
T2 sequence (looked up): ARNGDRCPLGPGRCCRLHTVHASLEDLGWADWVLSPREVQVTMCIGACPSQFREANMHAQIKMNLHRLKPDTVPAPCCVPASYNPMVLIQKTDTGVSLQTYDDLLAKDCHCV
Description: ELISA, monkey GDF15-hIgG1 Fc coated, HRP anti-mouse IgG. The protocol:
as §2
(§4) The experiment was performed as detailed in Example 2, except that the fusion protein in Example 2 was replaced with a fusion protein comprising the extracellular region of monkey GDF15 protein (Genbank accession number EHH29815.1) and human IgG1-FC (Genbank accession number CAC20454.1). The results were shown in Table 2-1, Table 2-2 and FIGS. 2-1 and 2-2.

Assay [3] concerns the target T3, GDF15-HIS (ACROBiosystems, CAT #: GD5-H5149) (human, UniProt Q99988 197-308).
T3 construct: Bought protein; also called GDF15 (ACROBiosystems, GD5-H5149); human GDF15; not shown: His tag
T3 sequence (looked up): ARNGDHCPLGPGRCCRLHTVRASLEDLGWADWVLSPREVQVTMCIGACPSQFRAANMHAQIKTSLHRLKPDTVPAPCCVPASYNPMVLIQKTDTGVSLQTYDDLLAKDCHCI
The assay can be described thus: BLI (ForteBio Octet), antibody immobilised, GDF15 200-6.25 nM. In general terms: Biolayer interferometry detects binding as a change in optical thickness at a sensor tip.

In assay [4] the target is T4, GDF15-mFC protein (human; mouse, UniProt Q99988 197-308).
T4 construct: extracellular domain;domain: IgG2a-FC; also called GDF15-mFc fusion protein
T4 sequence (looked up): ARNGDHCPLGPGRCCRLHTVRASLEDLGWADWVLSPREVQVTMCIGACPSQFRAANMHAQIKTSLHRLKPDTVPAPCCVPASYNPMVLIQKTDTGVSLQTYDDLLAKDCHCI
Description: blocking ELISA, GFRAL-hIgG1 Fc coated (competitor), GDF15-mFC 20 ng/well mixed with antibody. Here is the method:
as §1, with “of GFRAL” for “of human GDF15”, “number NM_207410.2)” for “number NM_004864.3)”, “[…]” for “1 ng/ml”, “dried via” for “dried by”, “well followed by incubating” for “well and incubated”
(§5) The antibodies to be tested, positive control antibody AV380-mIgG1 and blank control (PBS) were added to the wells. […] At the same time, GDF15-mFC protein (GDF15: Genbank accession number NM_004864.3; mFC: Genbank accession number AAH31470.1) was added at 20 ng/well and mixed with the antibodies to be tested. The wells were incubated at 37° C. for 1 hour, washed, and dried via tapping. Then the enzyme-labeled secondary antibody, horseradish peroxidase-labeled goat anti-mouse IgG (SIGMA, catalog number A9044-2 ml) was added to each well, at a dilution of 1:10000, 50-100 μl/well. The wells were incubated at 37° C. for 2 hours, washed, and dried via tapping. 100 μl of freshly prepared developing solution TMB was added to each well and incubated at 37° C. for 30 minutes. 2 mol/L H₂SO₄ was added to terminate the reaction, and the OD value was obtained on an enzyme-linked immunosorbent reader.

The target in assay [5] is T1, fusion protein comprising the …. Description: ELISA, human GDF15-hIgG1 Fc coated, HRP anti-mouse IgG. The protocol:
as §1, §2, §3
This is another data set of the same source.

Assay [6] deals with T2, fusion protein comprising the …. Description: ELISA, monkey GDF15-hIgG1 Fc coated, HRP anti-mouse IgG. The protocol: as §2, §4
The source holds these as a separate data set.

The target in assay [7] is T4, GDF15-mFC protein. Description: blocking ELISA, GFRAL-hIgG1 Fc coated (competitor), GDF15-mFC 20 ng/well mixed with antibody. The protocol: as §1, with “of GFRAL” for “of human GDF15”, “number NM_207410.2)” for “number NM_004864.3)”, “[…]” for “1 ng/ml”, “dried via” for “dried by”, “well followed by incubating” for “well and incubated”
as §5
The source holds these as a separate data set.

The target in assay [8] is T5, cynoGDF15-mFC (monkey (cyno); mouse, UniProt G7PWZ3 197-308).
T5 construct: also called monkey GDF15 (cynoGDF15)
T5 sequence (looked up): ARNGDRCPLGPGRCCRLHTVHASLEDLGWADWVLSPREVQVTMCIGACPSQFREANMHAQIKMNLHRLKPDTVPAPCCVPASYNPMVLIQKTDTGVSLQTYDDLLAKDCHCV
Description: ELISA, cynoGDF15-mFC coated. Here is the method:
The experiment was performed as detailed in Example 2, except that the coating protein was cynoGDF15-mFC (GDF15: Genbank accession number EHH29815.1; mFC: Genbank accession number AAH31470.1), and the antibodies to be tested (the humanized antibodies), negative control antibody (hIgG1), and positive control antibodies Ponsegromab and AV380-hIgG1 were added to each well of the coated plate.

Read-outs that look alike come from different tables or passages of the source.

B1: A3 (murine anti-34G9) (antibody, V domains shown)
VH: QVQLKESGPGILQPSQTLSLTCSFSGFSLNTAGMTVGWIRQPSGKGLEWLAHIWWNDDKYYNPALKSRLTISKDTSNNQIFLEIASVVTADTATYYCTRIATMNYAMDYWGQGTSVTVSS
VL: DIVMTQAPASLAVSLGQRATISCRASQSVSTSSFSYMHWYQQKPGQPPKLLIKYASNLESGVPARFSGSGSGTDFTLNIHPVEEEDTATYYCQHSWEIPYTFGGGTKLEIK
notes: Purified murine hybridoma antibody
A word on the EC50: it is the concentration at which the effect is half-maximal. What is called Kd is the free concentration of one partner at which half of the binding sites on the other are occupied at equilibrium, for simple one-to-one binding. As usually defined, the koff is a measure of how fast the partners let go of each other. By kon is commonly meant a measure of how fast the partners come together. Usually IC50 stands for the concentration needed to halve the response being measured. For the molecule B1, in assay [1], the EC50 was found to be 0.109 µg/mL. The concentration for a half-maximal effect (EC50) in assay [2] stood at 0.157 µg/mL. For the same molecule, in assay [3], binding was characterised by a dissociation constant (Kd) of 0.0895 nM, the off-rate (koff) was found to be 7.2e-05 s⁻¹ and the kon is 805000 M⁻¹ s⁻¹. Moreover, the IC50 in assay [4] turned out to be 0.0916 µg/mL.

B2: A5 (murine anti-50G3) (antibody, V domains shown)
VH: QVTLKESGPGILKPSQTLSLTCSFSGFSLSTSGMGVGWIRQPSGKGLEWLAHIWWNDDKYYNPSLKSHLTISKDTSRNQVFLMITSVDTADTATYYCARGAYDFFDYWGQGTTLTVSS
VL: DIVMTQAQNFMSTSVGDRVSVTCKASQNVDTNVAWYQQKPGQSPKALIYSASYRYSGVPDRFTGSGSGTDFTLTISNVQSDDLADYFCQQYNTYPYTFGGGTKLEIK
notes: as for B1
For the molecule B2, in assay [5], the EC50 amounted to 0.0556 µg/mL. This molecule also yielded an EC50 in assay [6] of 0.077 µg/mL. In assay [3], this molecule showed a Kd of 0.162 nM, an off-rate constant (koff) of 0.000328 s⁻¹ and an on-rate (kon) of 2.02e+06 M⁻¹ s⁻¹. In assay [7], this molecule gave an IC50 of 0.232 µg/mL.

B3: A4 (murine anti-2A2) (antibody, V domains shown)
VH: QVTLKESGPGILQPSQTLSLTCSFSGFSLTTSGMGVDWIRQSSGKGLEWLAHIYWDDDKRYNPSLKSRLTISKDTSSNQVFLKITSVDTADTATYYCARRAWDAMDYWGQGTSFTVSS
VL: DIVMTQAQKFMSTSVGDRVSVTCKARQNVGTNVAWYQQKPGQSPKALIYSASYRYSGVPDRFTGSGSGTDFTLTISNVQSEDLAEYFCQQYNSYPYTFGGGTKLEIK
notes: as for B1
On to B3, for which, in assay [1], the EC50 is 0.046 µg/mL. In assay [2], the half-maximal effective concentration (EC50) came out at 0.0827 µg/mL. In assay [3], this molecule registered a Kd of 0.146 nM, an off-rate constant (koff) of 0.000214 s⁻¹ and an association rate constant (kon) of 1.47e+06 M⁻¹ s⁻¹. For the same molecule, the IC50 in assay [4] was 0.0898 µg/mL.

B4: Ponsegromab (antibody, V domains shown)
VH: QVQLVQSGAEVKKPGSSVKVSCKASGYTFSSYNIDWVRQAPGQGLEWMGGINPIFGTAFYNQKFQGRVTITADESTSTAYMELSSLRSEDTAVYYCAREAITTVGAMDHWGQGTLVTVSS
VL: EIVLTQSPATLSLSPGERATLSCRTSQSVHNYLAWYQQKPGQAPRLLIYDASTRADGIPARFSGSGSGTDFTLTISSLEPEDFAVYYCQQFWSWPWTFGQGTKVEIKR
In assay [8], B4 showed a concentration for a half-maximal effect (EC50) of 0.0697 µg/mL and an OD450.Max of 1.07 OD450.

B5: A1 (murine anti-53E5) (antibody, V domains shown)
VH: QVQLKESGPGILQPSQTLSLTCSFSGFSLSTSGMGVGWIRQPSGKGLEWLAHILWDDVKRYNPALKSRLTISKDSSNSQIFLKIASVDTADTATYYCVQMAWDWFAYWGQGTLVTVSA
VL: DIVMTQAQKFMSTSVEDRVSVTCKASQNVDTNVAWYQQKPGQSPKALIYSASYRSSGVPDRFTGSGSGTDFTLTISNVQSEDLAEYFCQQYHSYPTFGGGTKLEIK
notes: as for B1
Molecule B5 returned an EC50 in assay [5] of 0.0455 µg/mL. A half-maximal effect in assay [6] (EC50) was put at 0.0454 µg/mL. Moreover, in assay [3], the Kd stood at 0.085 nM, the dissociation rate constant (koff) came to 0.000194 s⁻¹ and the kon stood at 2.29e+06 M⁻¹ s⁻¹. In addition, the concentration for half-maximal inhibition (IC50) in assay [7] turned out to be 0.186 µg/mL.

B6: A2 (murine anti-53A8) (antibody, V domains shown)
VH: QVQLKESGPGILQPSQTLSLTCSFSGFSLSTSGMGVGWIRQPSGKGLEWLAHIRWDDVKRYNPALKSRLTISKDTSSSQIFLKIASVDTADTATYYCAQMAWDWFAYWGQGTLVTVSA
VL: DIVMTQAQKFMSTSVGDRVSVTCKASQNVDTDVAWYQQKPGQSPKALIYSASYRYSGVPDRFTGSGSGTDFTLTITNVQSEDLAEYFCHQYNSYPTFGGGTKLEIK
notes: Purified murine hybridoma antibody; also called murine antibody 53A8
In assay [5], B6 registered a 50% effective concentration (EC50) of 0.0378 µg/mL. The molecule further returned a 50% effective concentration (EC50) in assay [6] of 0.0677 µg/mL. In addition, in assay [3], the Kd came out at 0.14 nM, the off-rate (koff) was 0.000318 s⁻¹ and the kon is 2.28e+06 M⁻¹ s⁻¹. The same molecule returned a half-maximal inhibitory concentration (IC50) in assay [7] of 0.205 µg/mL.

B7: A6 (murine anti-53D10) (antibody, V domains shown)
VH: QVTLKESGPGIVQPSQPFRLTCTFSGFSLSTSGIGITWIRQPSGKGLEWLATIWWDDDNRYNPSLKSRLTVSKDTSNNQAFLNIITVETADTAIYYCVQSAWDWFAYWGQGTLVTVSA
VL: DIVMTQSQKFMSTSVGDRVSVTCKASQNVGTNVAWYQQKSGQSPKALIYSASYRNSGVPDRFTGSGSGTDFTLTISNVESEDLAEYFCQQYNSHPVTFGGGTKLEIK
notes: as for B1
In assay [5], B7 came in with an EC50 of 0.0602 µg/mL. Also, in assay [6], a half-maximal effect (EC50) was put at 0.0555 µg/mL. Also, in assay [3], the Kd is 0.0972 nM, the koff was determined as 0.000217 s⁻¹ and the kon came to 2.24e+06 M⁻¹ s⁻¹. Besides, the IC50 in assay [7] was 0.213 µg/mL.
